Columns and labels:
[1] = target: full length wild type SARS-CoV-2 spike glycoprotein on pseudotyped lentivirus (SARS-CoV-2) (UniProt P0DTC2); experiment: cell-based or functional assay
[2] = target: WT SARS-CoV-2 spike protein, plate-coated (MSD V-Plex) (SARS-CoV-2) (UniProt P0DTC2); experiment: MSD competition vs labelled ACE2
[3] = target: SARS-CoV-2 spike RBD-His (R&D Systems, cat #10500-CV) (SARS-CoV-2) (UniProt P0DTC2); experiment: SPR, 1:1 model
[4] = target: SARS-CoV-2 spike RBD-His (R&D Systems, cat #10500-CV) (SARS-CoV-2) (UniProt P0DTC2); experiment: SPR

Row | Substance | Pseudovirus Neutralization (IC50, nM) [1] [nM] | Pseudovirus neutralization IC50 [1] [nM] | IC50 [2] [nM] | Kd [3] [nM] | Kd [4] [nM]
1 | REGEN-COV | 0.09 | 0.09 | 0.07 | – | –
2 | REGN10987 (Imdevimab) (antibody) | – | – | – | 0.0869 | 0.0869
3 | Bamlanivimab + Etesevimab | – | – | 0.07 | – | –
4 | REGN10933 (Casirivimab) (antibody) | – | – | – | 0.0708 | 0.0708
5 | Sotrovimab (antibody) | 0.11 | – | – | – | –

Reference: patent publication US20240327815A1
